The record followed here is PMC9352680, “A comprehensive thermodynamic model for RNA binding by the Saccharomyces cerevisiae Pumilio protein PUF4”.

Sequences and labels used below:
T1: PUF4 RNA-binding domain (Saccharomyces cerevisiae, UniProt P25339 537-888)
T1 sequence: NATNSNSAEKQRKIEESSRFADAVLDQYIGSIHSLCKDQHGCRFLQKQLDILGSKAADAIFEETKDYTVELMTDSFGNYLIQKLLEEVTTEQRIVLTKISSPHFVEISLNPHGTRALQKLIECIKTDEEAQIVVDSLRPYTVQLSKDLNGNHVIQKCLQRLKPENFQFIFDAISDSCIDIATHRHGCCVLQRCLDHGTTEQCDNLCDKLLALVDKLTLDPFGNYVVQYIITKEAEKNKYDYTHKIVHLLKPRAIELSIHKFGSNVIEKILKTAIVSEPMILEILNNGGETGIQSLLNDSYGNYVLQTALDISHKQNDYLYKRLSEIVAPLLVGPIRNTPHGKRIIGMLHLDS

For this series, the target named is T1, PUF4 RNA-binding domain. Kind of series: Mg; RNA-MaP; 20 mM Na-HEPES pH 7.4, 30 mM KOAc, 0.75 mM MgCl2, 0.1% Tween-20, 5% glycerol, 0.1 mg/mL BSA, 2 mM DTT; 25 C; 0.0125-409.6 nM protein. Particulars: tags: N-His6-TEV cleaved; C-SNAP kept, Cy3B-labelled; label: tethered on chip by stalled RNA polymerase.
As a reminder, the Kd is the free concentration of one partner at which half of the binding sites on the other are occupied at equilibrium, for simple one-to-one binding. Molecule UCUCUUCUUGUAUACUAUAUCUCUU (ssRNA) [Ie_S1_P3E.2_K3.1_C3.2_H3.1_A3.1_[+6C]_F3.1_T3.2] returned an equilibrium dissociation constant (Kd) of 0.878 nM.

In turn, UCUCUUCUUGUACUAUAUAUCUCUU (ssRNA) [Ie_S1_P3E.2_K3.1_C3.2_H3.1_[+4C]_A3.1_F3.1_T3.2] displayed a Kd of 1.5 nM.

For UCUCUUUUGUAUAUUAUCUCUU (ssRNA) [Ie_S1_P4E.1_K4.1_C4.1_H4.1_[+1T]_A4.1_F4.1_T4.1], the dissociation constant (Kd) is 0.567 nM.

Turning to UCUCUUCUUGUAUAUAUCCUAUCUCUU (ssRNA) [Ie_S1_P3E.2_K3.1_C3.2_H3.1_A3.1_F3.1_[+8TCC]_T3.2], the Kd is 10.2 nM.

The molecule UCUCUUUUUCGUAUAUUAUCUCUU (ssRNA) [Ie_S1_P4E.1_K4.1_C4.1_H4.1_[+1TTC]_A4.1_F4.1_T4.1] came in with a Kd of 20.9 nM.

UCUCUUUCUUGUAUAUUAUCUCUU (ssRNA) [Ie_S1_P4E.1_K4.1_C4.1_H4.1_[+1CTT]_A4.1_F4.1_T4.1] yielded a Kd of 0.599 nM.

With UCUCUUCUUGUAUAUAUUUUAUCUCUU (ssRNA) [Ie_S1_P3E.2_K3.1_C3.2_H3.1_A3.1_F3.1_[+8TTT]_T3.2], the Kd came out at 6.71 nM.

Molecule UCUCUUCUUGUACUCUAUAUAUCUCUU (ssRNA) [Ie_S1_P3E.2_K3.1_C3.2_H3.1_[+4CTC]_A3.1_F3.1_T3.2] registered a Kd of 3.95 nM.

UCUCUUCUUGUACUCUCUAUAUAUCUCUU (ssRNA) [Ie_S1_P3E.2_K3.1_C3.2_H3.1_[+4CTCTC]_A3.1_F3.1_T3.2] displayed a Kd of 31 nM.

Regarding UCUCUUCUUGUACCUCUAUAUAUCUCUU (ssRNA) [Ie_S1_P3E.2_K3.1_C3.2_H3.1_[+4CCTC]_A3.1_F3.1_T3.2], the Kd stood at 12.4 nM.

UCUCUUCUUGUAUAUAUCUAUCUCUU (ssRNA) [Ie_S1_P3E.2_K3.1_C3.2_H3.1_A3.1_F3.1_[+8TC]_T3.2] displayed a Kd of 9.28 nM.

In turn, UCUCUUCUUGUACCCUAUAUAUCUCUU (ssRNA) [Ie_S1_P3E.2_K3.1_C3.2_H3.1_[+4CCC]_A3.1_F3.1_T3.2] came in with a Kd of 8.38 nM.

Turning to UCUCUUCUUGUAUAUAUCUCUUAUCUCUU (ssRNA) [Ie_S1_P3E.2_K3.1_C3.2_H3.1_A3.1_F3.1_[+8TCTCT]_T3.2], binding was characterised by a dissociation constant (Kd) of 8.49 nM.

UCUCUUUUCGUAUAUUAUCUCUU (ssRNA) [Ie_S1_P4E.1_K4.1_C4.1_H4.1_[+1TC]_A4.1_F4.1_T4.1] gave a Kd of 24.4 nM.

The molecule UCUCUUCUUGUAUAUACCCUUUAUCUCUU (ssRNA) [Ie_S1_P3E.2_K3.1_C3.2_H3.1_A3.1_F3.1_[+8CCCTT]_T3.2] displayed a dissociation constant Kd of 9.52 nM.

For the molecule UCUCUUCUUGUAUAUUUCAUAUCUCUU (ssRNA) [Ie_S1_P3E.2_K3.1_C3.2_H3.1_A3.1_F3.1_[+7TTC]_T3.2], the Kd was determined as 6.46 nM.

In the case of UCUCUUCUUGUACCCUUUAUAUAUCUCUU (ssRNA) [Ie_S1_P3E.2_K3.1_C3.2_H3.1_[+4CCCTT]_A3.1_F3.1_T3.2], the equilibrium dissociation constant (Kd) turned out to be 20.6 nM.

As to UCUCUUCUUGUACCUAUAUAUCUCUU (ssRNA) [Ie_S1_P3E.2_K3.1_C3.2_H3.1_[+4CC]_A3.1_F3.1_T3.2], binding was characterised by a dissociation constant (Kd) of 17.6 nM.

For the molecule UCUCUUCUUGUAUAUAUUCCUUAUCUCUU (ssRNA) [Ie_S1_P3E.2_K3.1_C3.2_H3.1_A3.1_F3.1_[+8TTCCT]_T3.2], the Kd amounted to 6.43 nM.

UCUCUUCUUGUAUAUAUUAUCUCUU (ssRNA) [Ie_S1_P3E.2_K3.1_C3.2_H3.1_A3.1_F3.1_[+8T]_T3.2]: the Kd is 5.64 nM.

For the molecule UCUCUUCUUGUAUAUAUUCCUAUCUCUU (ssRNA) [Ie_S1_P3E.2_K3.1_C3.2_H3.1_A3.1_F3.1_[+8TTCC]_T3.2], the Kd came out at 6.86 nM.

UCUCUUUCUCUGUAUAUUAUCUCUU (ssRNA) [Ie_S1_P4E.1_K4.1_C4.1_H4.1_[+1CTCT]_A4.1_F4.1_T4.1] gave a Kd of 0.881 nM.

UCUCUUCUUGUUCUCUAUAUAUAUCUCUU (ssRNA) [Ie_S1_P3E.2_K3.1_C3.2_H3.1_[+3TCTCT]_A3.1_F3.1_T3.2]: binding was put at a Kd of 68.4 nM.

UCUCUUCUUGUAUAUACCCUUAUCUCUU (ssRNA) [Ie_S1_P3E.2_K3.1_C3.2_H3.1_A3.1_F3.1_[+8CCCT]_T3.2] had a Kd of 12.3 nM.

The molecule UCUCUUUCUCUCGUAUAUUAUCUCUU (ssRNA) [Ie_S1_P4E.1_K4.1_C4.1_H4.1_[+1CTCTC]_A4.1_F4.1_T4.1] came in with a Kd of 27.9 nM.

Turning to UCUCUUUGUAUAGUUAUCUCUU (ssRNA) [Ib_S1_P5E.1_K5.1_C5.1_H5.1_A5.1_[T6A]_[A7G]_F5.1_T5.1], binding was characterised by a dissociation constant (Kd) of 7.36 nM.

UCUCUUUGUAUCCUUAUCUCUU (ssRNA) [Ib_S1_P5E.1_K5.1_C5.1_H5.1_A5.1_[T6C]_[A7C]_F5.1_T5.1] gave a Kd of 9.16 nM.

Regarding UCUCUUUGUAUCGUUAUCUCUU (ssRNA) [Ib_S1_P5E.1_K5.1_C5.1_H5.1_A5.1_[T6C]_[A7G]_F5.1_T5.1], the affinity, expressed as Kd, was 14.4 nM.

Consider UCUCUUUUCUCGUAUAUUAUCUCUU (ssRNA) [Ie_S1_P4E.1_K4.1_C4.1_H4.1_[+1TCTC]_A4.1_F4.1_T4.1], for which the dissociation constant (Kd) amounted to 19.7 nM.

Take UCUCUUUCCCGUAUAUUAUCUCUU (ssRNA) [Ie_S1_P4E.1_K4.1_C4.1_H4.1_[+1CCC]_A4.1_F4.1_T4.1]: the equilibrium dissociation constant (Kd) came to 22.1 nM.

On to UCUCUUUGUAUACUUAUCUCUU (ssRNA) [Ie_S1_P4E.1_K4.1_C4.1_H4.1_A4.1_[+6C]_F4.1_T4.1], for which binding was characterised by a dissociation constant (Kd) of 4.35 nM.

The molecule UCUCUUCUUGUAUAUCUCUCAUAUCUCUU (ssRNA) [Ie_S1_P3E.2_K3.1_C3.2_H3.1_A3.1_F3.1_[+7CTCTC]_T3.2] had a Kd of 28.5 nM.

As for UCUCUUUUUCCGUAUAUUAUCUCUU (ssRNA) [Ie_S1_P4E.1_K4.1_C4.1_H4.1_[+1TTCC]_A4.1_F4.1_T4.1], the Kd turned out to be 36.3 nM.

Consider UCUCUUCUUGUAUAUUCCAUAUCUCUU (ssRNA) [Ie_S1_P3E.2_K3.1_C3.2_H3.1_A3.1_F3.1_[+7TCC]_T3.2], for which the Kd stood at 9.71 nM.

Turning to UCUCUUCUUGUAUAUACUUAUCUCUU (ssRNA) [Ie_S1_P3E.2_K3.1_C3.2_H3.1_A3.1_F3.1_[+8CT]_T3.2], the Kd amounted to 9.04 nM.

As for UCUCUUUUUGUAUAUUAUCUCUU (ssRNA) [Ie_S1_P4E.1_K4.1_C4.1_H4.1_[+1TT]_A4.1_F4.1_T4.1], binding was put at a Kd of 0.914 nM.

In the case of UCUCUUCUUGUCCUCUAUAUAUAUCUCUU (ssRNA) [Ie_S1_P3E.2_K3.1_C3.2_H3.1_[+3CCTCT]_A3.1_F3.1_T3.2], the Kd was 139 nM.

For the molecule UCUCUUUGUAUCUUUAUCUCUU (ssRNA) [Ib_S1_P5E.1_K5.1_C5.1_H5.1_A5.1_[T6C]_[A7T]_F5.1_T5.1], the affinity, expressed as Kd, was 6.01 nM.

In the case of UCUCUUCUUGUAUAUACUAUCUCUU (ssRNA) [Ie_S1_P3E.2_K3.1_C3.2_H3.1_A3.1_F3.1_[+8C]_T3.2], binding was put at a Kd of 8.83 nM.

In turn, UCUCUUUCCUGUAUAUUAUCUCUU (ssRNA) [Ie_S1_P4E.1_K4.1_C4.1_H4.1_[+1CCT]_A4.1_F4.1_T4.1] displayed a Kd of 0.583 nM.

In turn, UCUCUUUUCUGUAUAUUAUCUCUU (ssRNA) [Ie_S1_P4E.1_K4.1_C4.1_H4.1_[+1TCT]_A4.1_F4.1_T4.1] yielded a Kd of 0.546 nM.

Consider UCUCUUCUUGUAUCAUAUAUCUCUU (ssRNA) [Ie_S1_P3E.2_K3.1_C3.2_H3.1_A3.1_[+5C]_F3.1_T3.2], for which the Kd stood at 1.6 nM.

For the molecule UCUCUUCUUGUACUUAUAUAUCUCUU (ssRNA) [Ie_S1_P3E.2_K3.1_C3.2_H3.1_[+4CT]_A3.1_F3.1_T3.2], the Kd was found to be 6.52 nM.

As to UCUCUUCUUGUUUCCUAUAUAUAUCUCUU (ssRNA) [Ie_S1_P3E.2_K3.1_C3.2_H3.1_[+3TTCCT]_A3.1_F3.1_T3.2], the affinity, expressed as Kd, was 106 nM.

For UCUCUUCUUGUAUAUAUUCUAUCUCUU (ssRNA) [Ie_S1_P3E.2_K3.1_C3.2_H3.1_A3.1_F3.1_[+8TTC]_T3.2], binding was put at a Kd of 4.4 nM.

In turn, UCUCUUCUUGUAUAUACCUUAUCUCUU (ssRNA) [Ie_S1_P3E.2_K3.1_C3.2_H3.1_A3.1_F3.1_[+8CCT]_T3.2] displayed a Kd of 8.91 nM.

Molecule UCUCUUCUUGUAUAUACUCUAUCUCUU (ssRNA) [Ie_S1_P3E.2_K3.1_C3.2_H3.1_A3.1_F3.1_[+8CTC]_T3.2] came in with a Kd of 11.7 nM.

UCUCUUCUUGUAUAUCUCAUAUCUCUU (ssRNA) [Ie_S1_P3E.2_K3.1_C3.2_H3.1_A3.1_F3.1_[+7CTC]_T3.2]: binding was put at a Kd of 24.7 nM.

UCUCUUCUUGUAUUAUAUAUCUCUU (ssRNA) [Ie_S1_P3E.2_K3.1_C3.2_H3.1_A3.1_[+5T]_F3.1_T3.2]: the Kd is 2.15 nM.

Consider UCUCUUUCUGUAUAUUAUCUCUU (ssRNA) [Ie_S1_P4E.1_K4.1_C4.1_H4.1_[+1CT]_A4.1_F4.1_T4.1], for which binding was characterised by a dissociation constant (Kd) of 0.72 nM.

The molecule UCUCUUCUUGUAUAUCCCAUAUCUCUU (ssRNA) [Ie_S1_P3E.2_K3.1_C3.2_H3.1_A3.1_F3.1_[+7CCC]_T3.2] had a Kd of 37.9 nM.

In turn, UCUCUUCUUGUAUCCAUAUAUCUCUU (ssRNA) [Ie_S1_P3E.2_K3.1_C3.2_H3.1_A3.1_[+5CC]_F3.1_T3.2] yielded a Kd of 29.9 nM.

The molecule UCUCUUCUUGUAUAUACUCUCUAUCUCUU (ssRNA) [Ie_S1_P3E.2_K3.1_C3.2_H3.1_A3.1_F3.1_[+8CTCTC]_T3.2] had a dissociation constant (Kd) of 11.7 nM.

Regarding UCUCUUUCCCUGUAUAUUAUCUCUU (ssRNA) [Ie_S1_P4E.1_K4.1_C4.1_H4.1_[+1CCCT]_A4.1_F4.1_T4.1], the Kd came to 1.2 nM.

Molecule UCUCUUCUUGUACUCUUAUAUAUCUCUU (ssRNA) [Ie_S1_P3E.2_K3.1_C3.2_H3.1_[+4CTCT]_A3.1_F3.1_T3.2] showed a Kd of 9.53 nM.

Take UCUCUUCUUGUAUAUUCAUAUCUCUU (ssRNA) [Ie_S1_P3E.2_K3.1_C3.2_H3.1_A3.1_F3.1_[+7TC]_T3.2]: binding was put at a Kd of 10.3 nM.

Take UCUCUUCUUGUAUAUAUCUCUAUCUCUU (ssRNA) [Ie_S1_P3E.2_K3.1_C3.2_H3.1_A3.1_F3.1_[+8TCTC]_T3.2]: the affinity, expressed as Kd, was 5.63 nM.
